Source: PMC7703590

Target: SARS-CoV-2 RBD-Fc (SARS-CoV-2) (UniProt P0DTC2)
Test: BLI

In the case of IgG1 ab1 (from UniProt P01857), the koff is reported as 4e-05 s⁻¹.
Substance IgG1 ab1 (antibody) has an avidity of 160 pM.
